Data on 16 molecules can be found in patent US20240309056A1 (NAVIGO PROTEINS, published 2024).

Changes are numbered by the printed parent chain. Bounds are passed on as bounds.

Test [1] deals with T1, ubiquitin mutein 77404.
T1 construct: also called Affilin-77404
The experiment in a line: SPR; SEQ ID NO: 2, unmutated. Here is the method: (§1) Purified proteins were immobilized via C-terminal Cysteine on a CM-5 sensor chip (GE Healthcare) using NHS/EDC after PDEA activation with a Biacore 3000 system (GE Healthcare). The chip was equilibrated with SPR running buffer (PBS 0.05% Tween pH 7.3). Soluble ubiquitin muteins (Affilin® proteins) applied to the chip in serial dilutions (different concentrations) with a flow rate of 30 μl/min. The association was performed for 120 seconds and the dissociation for 120 seconds. After each run, the chip surface was regenerated with 30 μl regeneration buffer (10 mM glycine pH 2.0) and equilibrated with running buffer. Affilin® proteins accumulated on the surface increasing the refractive index. This change in the refractive index was measured in real time and plotted as response or resonance units versus time.
(§2) Binding studies were carried out using the BIAcore 3000 (GE Healthcare); data evaluation was operated via the BIAevaluation 3.0 software, provided by the manufacturer, by the use of the Langmuir 1:1 model (RI=0). Evaluated dissociation constants (KD) were standardized against the immobilized protein and indicated. Shown is the change in refractive index measured in real time and plotted as response or resonance unit [RU] versus time [sec] (see Table 2).

Test [2] has as its target T1, ubiquitin mutein 77404. Briefly: SPR; point mutant A16H. Here is the method: as §1, §2
Test [3] concerns the target T1, ubiquitin mutein 77404. Briefly: SPR; point mutant F5E. Here is the method:
as §1, §2
Background: SPR reads the build-up and loss of mass on a sensor chip optically.

The target of test [4] is T1, ubiquitin mutein 77404. The experiment in a line: SPR; point mutant K25R. Here is the method:
as §1, §2

For test [5], the target named is T1, ubiquitin mutein 77404. The experiment in a line: SPR; point mutant M2K. Here is the method:
as §1, §2

The target in test [6] is T1, ubiquitin mutein 77404. The experiment in a line: SPR; point mutant D3F. On the procedure: as §1, §2
In test [7] the target is T1, ubiquitin mutein 77404. Briefly: SPR; point mutant M23E. On the procedure:
as §1, §2

Test [8] concerns the target T1, ubiquitin mutein 77404. The experiment in a line: SPR; point mutant Y8Q. On the procedure: as §1, §2
The target of test [9] is T1, ubiquitin mutein 77404. The experiment in a line: SPR (Biacore 3000), ligand multimer immobilised, ubiquitin mutein in solution. On the procedure: as §1, §2
The target in test [10] is T2, ubiquitin mutein 200053.
T2 construct: also called Affilin-200053
Described as above. On the procedure:
as §1, §2

Test [11] addresses T3, ubiquitin mutein 211883.
T3 construct: also called Affilin-211883
The test is described as above. On the procedure: as §1, §2

Test [12] addresses T1, ubiquitin mutein 77404. The experiment in a line: SPR (Biacore 3000), ligand immobilised via C-terminal Cys on CM-5, ubiquitin mutein in solution, Langmuir 1:1. On the procedure: as §1, §2
The target of test [13] is T2, ubiquitin mutein 200053. The description is as above. On the procedure:
as §1, §2

In test [14] the target is T3, ubiquitin mutein 211883. The test is described as above. On the procedure: as §1, §2
A further test has as its target T4, ubiquitin mutein 139819.
T4 construct: Monomer with an insertion of 6 amino acids between positions 9 and 10 of ubiquitin; also called Affilin-139819
Described as above. On the procedure:
as §1, §2

In test [15] the target is T1, ubiquitin mutein 77404. The experiment in a line: SPR (Biacore 3000), ligand immobilised, ubiquitin mutein in solution; Table 1 run; ligand on the chip, Affilin-77404 in solution. On the procedure:
as §1, §2

B1: SEQ ID NO: 2 (designed binder)
chain: AMDDFAQYSAWAEIEALPNLTEMQKDQFIWSLMFDPSVSKEVLGEAQKLNDSQAPK
notes: also called 187029 del2N
The term Kd denotes the free concentration of one partner at which half of the binding sites on the other are occupied at equilibrium, for simple one-to-one binding. B1 returned a Kd with ubiquitin mutein 77404 [1] of under 0.5 nM.

B2: SEQ ID NO: 2_A16H (designed binder)
chain: B1 chain with A16H
B2 showed a Kd with ubiquitin mutein 77404 [2] of under 0.5 nM.

B3: SEQ ID NO: 2_F5E (designed binder)
chain: B1 chain with F5E
Take B3: the Kd in the test with ubiquitin mutein 77404 [3] is under 0.5 nM.

B4: SEQ ID NO: 2_K25R (designed binder)
chain: B1 chain with K25R
In the test with ubiquitin mutein 77404 [4], B4 showed a dissociation constant Kd of under 0.5 nM.

B5: SEQ ID NO: 2_M2K (designed binder)
chain: B1 chain with M2K
In the test with ubiquitin mutein 77404 [5], B5 returned a Kd of under 0.5 nM.

B6: SEQ ID NO: 2_D3F (designed binder)
chain: B1 chain with D3F
Turning to B6, the Kd in the test with ubiquitin mutein 77404 [6] is under 0.5 nM.

B7: SEQ ID NO: 2_M23E (designed binder)
chain: B1 chain with M23E
For B7, the Kd with ubiquitin mutein 77404 [7] was under 0.5 nM.

B8: SEQ ID NO: 2_Y8Q (designed binder)
chain: B1 chain with Y8Q
Turning to B8, in the test with ubiquitin mutein 77404 [8], the Kd was under 0.5 nM.

B9: SEQ21 dimer (215996) (designed binder)
chain: NAARSDEAQYSAWAEIEALPNLTEMQKDQFIWSLMFDPSVSKEVLGEAQKLNDSQAPKQAPKVDAKFDQAPKVDAKFDNAARSDEAQYSAWAEIEALPNLTEMQKDQFIWSLMFDPSVSKEVLGEAQKLNDSQAPKC
For B9, the Kd stood at 0.16 nM in the test with ubiquitin mutein 77404 [9], 5.5 nM in the test with ubiquitin mutein 200053 [10] and 78.1 nM with ubiquitin mutein 211883 [11].

B10: SEQ1 dimer (215999) (designed binder)
chain: B9 chain with R4M, S5D, E7F, R82M, S83D, E85F
For B10, the Kd in the test with ubiquitin mutein 77404 [9] is 0.1 nM; with ubiquitin mutein 211883 [11], 55.6 nM.

B11: SEQ 21 tetramer (215998) (designed binder)
chain: NAARSDEAQYSAWAEIEALPNLTEMQKDQFIWSLMFDPSVSKEVLGEAQKLNDSQAPKQAPKVDAKFDQAPKVDAKFDNAARSDEAQYSAWAEIEALPNLTEMQKDQFIWSLMFDPSVSKEVLGEAQKLNDSQAPKQAPKVDAKFDQAPKVDAKFDNAARSDEAQYSAWAEIEALPNLTEMQKDQFIWSLMFDPSVSKEVLGEAQKLNDSQAPKQAPKVDAKFDQAPKVDAKFDNAARSDEAQYSAWAEIEALPNLTEMQKDQFIWSLMFDPSVSKEVLGEAQKLNDSQAPKC
Take B11: the Kd in the test with ubiquitin mutein 77404 [9] was determined as 0.05 nM; with ubiquitin mutein 200053 [10], 8.3 nM; with ubiquitin mutein 211883 [11] it was 95.7 nM.

B12: SEQ1 tetramer (216001) (designed binder)
chain: NAAMDDFAQYSAWAEIEALPNLTEMQKDQFIWSLMFDPSVSKEVLGEAQKLNDSQAPKQAPKVDAKFDQAPKVDAKFDNAAMDDFAQYSAWAEIEALPNLTEMQKDQFIWSLMFDPSVSKEVLGEAQKLNDSQAPKQAPKVDAKFDQAPKVDAKFDNAAMDDFAQYSAWAEIEALPNLTEMQKDQFIWSLMFDPSVSKEVLGEAQKLNDSQAPKQAPKVDAKFDQAPKVDAKFDNAAMDDFAQYSAWAEIEALPNLTEMQKDQFIWSLMFDPSVSKEVLGEAQKLNDSQAPKC
Consider B12, for which the Kd amounted to 0.6 nM with ubiquitin mutein 77404 [9], 6.5 nM in the test with ubiquitin mutein 200053 [10] and 93.1 nM with ubiquitin mutein 211883 [11].

B13: SEQ21 trimer (215997) (designed binder)
chain: NAARSDEAQYSAWAEIEALPNLTEMQKDQFIWSLMFDPSVSKEVLGEAQKLNDSQAPKQAPKVDAKFDQAPKVDAKFDNAARSDEAQYSAWAEIEALPNLTEMQKDQFIWSLMFDPSVSKEVLGEAQKLNDSQAPKQAPKVDAKFDQAPKVDAKFDNAARSDEAQYSAWAEIEALPNLTEMQKDQFIWSLMFDPSVSKEVLGEAQKLNDSQAPKC
Turning to B13, the Kd with ubiquitin mutein 77404 [9] is 0.4 nM; in the test with ubiquitin mutein 200053 [10] it was 8.5 nM; with ubiquitin mutein 211883 [11] it was 73.4 nM.

B14: SEQ1 trimer (216000) (designed binder)
chain: B13 chain with R4M, S5D, E7F, R82M, S83D, E85F, R160M, S161D, E163F
Regarding B14, the Kd stood at 0.3 nM with ubiquitin mutein 77404 [9], 6.5 nM with ubiquitin mutein 200053 [10] and 56.2 nM with ubiquitin mutein 211883 [11].

B15: affinity ligand 187029 (designed binder)
chain: NAAMDDFAQYSAWAEIEALPNLTEMQKDQFIWSLMFDPSVSKEVLGEAQKLNDSQAPK
notes: Artificial mosaic protein of Protein A-like structure
Turning to B15, the Kd in the test with ubiquitin mutein 77404 [12] was 1.3 nM; with ubiquitin mutein 200053 [13] it was 5.9 nM; in the test with ubiquitin mutein 211883 [14] it was 52.9 nM; in the test with ubiquitin mutein 139819 it was 75.5 nM; with ubiquitin mutein 77404 [15], under 0.5 nM.

B16: affinity ligand 187028 (designed binder)
chain: B15 chain with M4R, D5S, F7E
Consider B16, for which the Kd is 0.6 nM with ubiquitin mutein 77404 [12], 2.5 nM with ubiquitin mutein 200053 [13], 66.2 nM with ubiquitin mutein 211883 [14] and 47.3 nM with ubiquitin mutein 139819.
